Legend:
[1] = target: rhodamine-labeled MetJ (MetJ-A1C-rhodamine) (E. coli) (UniProt P0A8U6); test: AUC
[2] = target: the molecule itself; test: AUC

| Molecule | stoichiometry N [1] | stoichiometry N [2] |
| --- | --- | --- |
| rhodamine-labeled MetJ (MetJ-A1C-rhodamine) (from UniProt P0A8U6 1-105) (natural protein) | 2 |  |
| unlabeled MetJ (methionine repressor protein) (natural protein, E. coli, UniProt P0A8U6 1-105, looked up) MAEWSGEYISPYAEHGKKSEQVKKITVSIPLKVLKILTDERTRRQVNNLRHATNSELLCEAFLHAFTGQPLPDDADLRKERSDEIPEAAKEIMREMGINPETWEY |  | 2 |
